Results on three substances are retold here after paper PMC11946513, “Modulation of the substrate preference of a MYST acetyltransferase by a scaffold protein” (The Journal of Biological Chemistry, 2025).

The target of test [1] is full-length KAT6A (KAT6A^FL) (human) (UniProt Q92794).
Test [2] deals with KAT6A MYST domain (KAT6A 501-784) (human) (UniProt Q92794).
Test [3] concerns the target KAT6A^FL-BRPF1 2-protein complex (KAT6A^FL 2-plex) (human) (UniProt Q92794).
Test [4] deals with KAT6A^FL 4-protein complex (KAT6A^FL 4-plex) (UniProt Q92794).
Sequence of KAT6A^FL 4-protein complex (KAT6A^FL 4-plex) (Q92794 whole entry, looked up, one chain of several): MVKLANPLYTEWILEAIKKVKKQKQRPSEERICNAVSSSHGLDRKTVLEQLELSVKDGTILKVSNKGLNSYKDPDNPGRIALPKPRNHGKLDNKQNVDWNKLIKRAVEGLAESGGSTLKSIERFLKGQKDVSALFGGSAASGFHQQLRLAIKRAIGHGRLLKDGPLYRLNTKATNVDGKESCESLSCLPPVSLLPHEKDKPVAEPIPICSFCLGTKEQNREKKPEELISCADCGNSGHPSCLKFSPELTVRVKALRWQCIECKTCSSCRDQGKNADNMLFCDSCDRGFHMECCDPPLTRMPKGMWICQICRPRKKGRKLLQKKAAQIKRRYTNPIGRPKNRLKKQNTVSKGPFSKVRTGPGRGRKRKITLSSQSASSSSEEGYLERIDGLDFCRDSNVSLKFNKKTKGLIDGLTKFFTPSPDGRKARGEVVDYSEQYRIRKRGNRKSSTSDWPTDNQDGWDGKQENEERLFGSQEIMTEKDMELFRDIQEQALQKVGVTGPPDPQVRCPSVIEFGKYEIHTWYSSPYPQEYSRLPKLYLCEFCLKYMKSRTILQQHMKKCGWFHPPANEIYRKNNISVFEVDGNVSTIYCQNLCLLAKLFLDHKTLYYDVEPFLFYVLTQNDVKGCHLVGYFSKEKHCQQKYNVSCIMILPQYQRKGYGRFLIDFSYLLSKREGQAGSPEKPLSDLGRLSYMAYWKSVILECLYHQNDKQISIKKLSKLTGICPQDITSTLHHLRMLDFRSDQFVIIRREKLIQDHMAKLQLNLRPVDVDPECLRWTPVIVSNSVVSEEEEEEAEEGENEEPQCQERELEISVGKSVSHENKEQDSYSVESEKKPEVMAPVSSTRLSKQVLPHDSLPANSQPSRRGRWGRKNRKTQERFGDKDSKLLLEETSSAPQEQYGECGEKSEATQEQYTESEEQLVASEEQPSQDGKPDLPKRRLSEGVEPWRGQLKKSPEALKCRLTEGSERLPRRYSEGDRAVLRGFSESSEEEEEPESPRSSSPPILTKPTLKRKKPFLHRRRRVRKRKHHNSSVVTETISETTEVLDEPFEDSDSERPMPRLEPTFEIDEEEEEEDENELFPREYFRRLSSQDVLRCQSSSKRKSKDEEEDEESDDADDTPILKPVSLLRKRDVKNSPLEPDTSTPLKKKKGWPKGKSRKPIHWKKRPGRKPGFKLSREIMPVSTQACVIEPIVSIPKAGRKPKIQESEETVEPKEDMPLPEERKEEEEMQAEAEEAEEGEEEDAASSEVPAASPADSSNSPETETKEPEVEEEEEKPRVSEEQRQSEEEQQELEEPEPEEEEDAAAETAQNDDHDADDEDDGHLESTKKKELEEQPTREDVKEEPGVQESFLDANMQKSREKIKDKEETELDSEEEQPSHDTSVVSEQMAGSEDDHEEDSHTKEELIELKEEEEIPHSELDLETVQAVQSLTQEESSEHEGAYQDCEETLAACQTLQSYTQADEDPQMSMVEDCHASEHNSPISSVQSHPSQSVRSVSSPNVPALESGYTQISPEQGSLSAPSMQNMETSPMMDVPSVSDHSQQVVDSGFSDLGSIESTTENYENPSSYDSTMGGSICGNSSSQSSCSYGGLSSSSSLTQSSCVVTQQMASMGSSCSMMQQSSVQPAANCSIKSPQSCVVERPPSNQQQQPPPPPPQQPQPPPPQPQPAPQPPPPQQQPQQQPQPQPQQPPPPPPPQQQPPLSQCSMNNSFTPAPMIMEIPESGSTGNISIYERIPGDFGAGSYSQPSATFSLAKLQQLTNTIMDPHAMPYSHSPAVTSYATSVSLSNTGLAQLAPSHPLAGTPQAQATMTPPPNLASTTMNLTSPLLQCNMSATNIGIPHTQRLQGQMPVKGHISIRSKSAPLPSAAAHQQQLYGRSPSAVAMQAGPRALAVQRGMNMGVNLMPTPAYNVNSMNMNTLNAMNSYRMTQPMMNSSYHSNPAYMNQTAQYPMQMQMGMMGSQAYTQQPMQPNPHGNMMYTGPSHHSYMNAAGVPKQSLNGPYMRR

Sequence of KAT6A MYST domain (KAT6A 501-784) (human) (Q92794 501-784): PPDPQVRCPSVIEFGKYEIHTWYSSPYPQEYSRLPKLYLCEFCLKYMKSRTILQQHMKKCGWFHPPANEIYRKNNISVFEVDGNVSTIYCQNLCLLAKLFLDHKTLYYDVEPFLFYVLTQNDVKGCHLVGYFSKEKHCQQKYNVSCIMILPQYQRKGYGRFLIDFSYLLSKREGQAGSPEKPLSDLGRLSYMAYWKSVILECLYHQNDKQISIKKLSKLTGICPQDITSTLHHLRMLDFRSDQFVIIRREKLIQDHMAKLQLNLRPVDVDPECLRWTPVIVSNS
Sequence of full-length KAT6A (KAT6A^FL) (human) (Q92794 whole entry, the tested form may be a part): as the sequence (Q92794 whole entry, looked up, one chain of several) above
Sequence of KAT6A^FL-BRPF1 2-protein complex (KAT6A^FL 2-plex) (human) (Q92794 whole entry, chain 1 of 2): as the sequence (Q92794 whole entry, looked up, one chain of several) above
Sequence of KAT6A^FL-BRPF1 2-protein complex (KAT6A^FL 2-plex) (human) (P55201 whole entry, chain 2 of 2, further chain): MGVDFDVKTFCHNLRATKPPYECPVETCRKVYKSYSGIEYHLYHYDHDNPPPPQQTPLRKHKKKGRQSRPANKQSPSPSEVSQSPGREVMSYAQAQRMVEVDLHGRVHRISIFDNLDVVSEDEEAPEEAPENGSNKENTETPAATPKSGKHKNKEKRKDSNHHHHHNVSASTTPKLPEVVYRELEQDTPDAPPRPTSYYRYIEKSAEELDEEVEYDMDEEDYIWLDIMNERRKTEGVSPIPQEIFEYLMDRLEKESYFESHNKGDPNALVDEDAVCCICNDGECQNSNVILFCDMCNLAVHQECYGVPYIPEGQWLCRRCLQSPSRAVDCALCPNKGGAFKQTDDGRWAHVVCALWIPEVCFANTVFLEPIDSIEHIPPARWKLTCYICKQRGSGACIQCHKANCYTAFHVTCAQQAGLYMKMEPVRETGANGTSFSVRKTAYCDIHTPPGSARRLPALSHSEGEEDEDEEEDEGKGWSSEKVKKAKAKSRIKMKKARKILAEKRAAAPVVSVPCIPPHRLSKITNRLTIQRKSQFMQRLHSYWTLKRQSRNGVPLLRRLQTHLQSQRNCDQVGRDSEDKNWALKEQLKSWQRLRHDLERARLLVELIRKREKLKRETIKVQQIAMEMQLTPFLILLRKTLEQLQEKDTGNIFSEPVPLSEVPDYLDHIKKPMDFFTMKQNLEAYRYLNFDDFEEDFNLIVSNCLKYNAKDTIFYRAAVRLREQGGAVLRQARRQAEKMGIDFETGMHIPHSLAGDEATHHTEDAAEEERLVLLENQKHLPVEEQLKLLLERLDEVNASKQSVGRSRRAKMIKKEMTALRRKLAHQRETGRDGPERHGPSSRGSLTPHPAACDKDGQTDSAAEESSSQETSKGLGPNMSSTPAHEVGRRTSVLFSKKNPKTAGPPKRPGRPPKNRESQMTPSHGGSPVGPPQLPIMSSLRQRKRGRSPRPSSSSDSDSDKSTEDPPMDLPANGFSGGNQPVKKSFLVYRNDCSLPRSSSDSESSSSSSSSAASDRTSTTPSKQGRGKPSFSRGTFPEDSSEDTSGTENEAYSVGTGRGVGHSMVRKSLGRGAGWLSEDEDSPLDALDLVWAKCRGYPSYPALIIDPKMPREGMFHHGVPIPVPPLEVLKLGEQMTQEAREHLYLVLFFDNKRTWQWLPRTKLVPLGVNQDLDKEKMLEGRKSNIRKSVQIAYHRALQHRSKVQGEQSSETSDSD

With H3 (1-21) (peptide), the results for the KM of steady-state acetylation of the peptide (CoA formation by MS; 20 μM AcCoA, 25 °C) in test [1] and in test [2] were 16 µM and 380 µM, respectively.
Taken in the same sequence, the figures for H3.3 (1-43) (peptide) were 3.2 µM and 130 µM.
In the case of H3.3 (15-36) (peptide), the KM of steady-state acetylation of the peptide (CoA formation by MS; 20 μM AcCoA, 25 °C) was 30 µM in test [1], 360 µM in test [2], 13 µM in test [3] and 16 µM in test [4].
